Legend:
Experiment in all cases: IEDB peptide-MHC binding, purified MHC/competitive/radioactivity; ≥ and ≤ were set here for values at or beyond the usual limits of such assays
HLA-A*02:01 = molecular target: HLA-A*02:01
HLA-A*02:02 = molecular target: HLA-A*02:02
HLA-A*02:03 = molecular target: HLA-A*02:03
HLA-A*02:06 = molecular target: HLA-A*02:06
HLA-A*68:02 = molecular target: HLA-A*68:02
[1] = source organism: Vaccinia virus WR
[2] = source organism: Mammarenavirus choriomeningitidis
[3] = source organism: Hepacivirus hominis
[4] = source organism: Influenza A virus

Sequence | IC50 (HLA-A*02:02; source organism: SARS-CoV1) [nM] | IC50 (HLA-A*02:03; source organism: SARS-CoV1) [nM] | IC50 (HLA-A*02:06; source organism: SARS-CoV1) [nM] | IC50 (HLA-A*68:02; source organism: SARS-CoV1) [nM] | IC50 (HLA-A*02:02; [1]) [nM] | IC50 (HLA-A*02:03; [1]) [nM] | IC50 (HLA-A*02:06; [1]) [nM] | IC50 (HLA-A*68:02; [1]) [nM] | other results
MLLTFLTSL | 6.2 | 4.8 | 3.6 | 923 |  |  |  |  | IC50 (HLA-A*02:01; source organism: SARS-CoV1): 1.6 nM
IICEDAMYYA |  |  |  |  | 24 | 108 | 8.8 | 746 | IC50 (HLA-A*02:01; [1]): 23 nM
FTLLFQLCT | 1100 | 744 | 140 | 2740 |  |  |  |  | IC50 (HLA-A*02:01; source organism: SARS-CoV1): 133 nM
KLYGYASLTT |  |  |  |  | 1.9 | 0.26 | 34 | 1740 | IC50 (HLA-A*02:01; [1]): 19 nM
SVKNLILNFL |  |  |  |  | 1040 | 163 | 551 | 130 | IC50 (HLA-A*02:01; [1]): 2210 nM
YVIPDELIDV |  |  |  |  | 18 | 14 | 12 | 350 | IC50 (HLA-A*02:01; [1]): 23 nM
ILATLNTLI |  |  |  |  | 0.41 | 0.23 | 40 | 2310 | IC50 (HLA-A*02:01; [1]): 15 nM
ALMDLLMFS |  |  |  |  |  |  |  |  | IC50 (HLA-A*02:01; [2]): 2.4 nM; IC50 (HLA-A*02:02; [2]): 0.94 nM; IC50 (HLA-A*02:03; [2]): 104 nM; IC50 (HLA-A*02:06; [2]): 14 nM; IC50 (HLA-A*68:02; [2]): 2990 nM
GMSIVCIVAA |  |  |  |  | 161 | 231 | 1220 | 1860 | IC50 (HLA-A*02:01; [1]): 178 nM
IIFWFSLEI | 1.8 | 87 | 4.6 | 520 |  |  |  |  | IC50 (HLA-A*02:01; source organism: SARS-CoV1): 9 nM
MQVFFGYFA | 10 | 193 | 1 | 12 |  |  |  |  | IC50 (HLA-A*02:01; source organism: SARS-CoV1): 10 nM
MMVILPDKI |  |  |  |  | 69 | 16 | 909 | 1630 | IC50 (HLA-A*02:01; [1]): 161 nM
MICCDSRIVV |  |  |  |  | 665 | 392 | 52 | 27 | IC50 (HLA-A*02:01; [1]): 25 nM
VTFINDYANL |  |  |  |  | 99 | 247 | 148 | 527 | IC50 (HLA-A*02:01; [1]): 2480 nM
MLWCKDGHV | 10 | 11 | 362 | 74 |  |  |  |  | IC50 (HLA-A*02:01; source organism: SARS-CoV1): 30 nM
FVYVSVMNFI |  |  |  |  | 76 | 18 | 7.5 | 57 | IC50 (HLA-A*02:01; [1]): 704 nM
MTSTRTIILV |  |  |  |  | 1980 | 920 | 217 | 173 | 
SMWALVISV | 6.1 | 4.4 | 0.79 | 252 |  |  |  |  | 
TLLCVLAAL | 8.1 | 11 | 8 | 431 |  |  |  |  | 
FISGIQYLA |  |  |  |  |  |  |  |  | IC50 (HLA-A*02:02; [3]): 8.6 nM; IC50 (HLA-A*02:03; [3]): 832 nM; IC50 (HLA-A*02:06; [3]): 1340 nM; IC50 (HLA-A*68:02; [3]): 12 nM

Sequence | IC50 (HLA-A*02:02; source organism: SARS-CoV1) [nM] | IC50 (HLA-A*02:03; source organism: SARS-CoV1) [nM] | IC50 (HLA-A*02:06; source organism: SARS-CoV1) [nM] | IC50 (HLA-A*68:02; source organism: SARS-CoV1) [nM] | IC50 (HLA-A*02:02; [1]) [nM] | IC50 (HLA-A*02:03; [1]) [nM] | IC50 (HLA-A*02:06; [1]) [nM] | IC50 (HLA-A*68:02; [1]) [nM] | other results
FLLVTLAIL | 0.64 | 0.97 | 0.48 | 1900 |  |  |  |  | 
QMWKCLIRL |  |  |  |  |  |  |  |  | IC50 (HLA-A*02:02; [3]): 175 nM; IC50 (HLA-A*02:03; [3]): 317 nM; IC50 (HLA-A*02:06; [3]): 218 nM; IC50 (HLA-A*68:02; [3]): 3230 nM
FTYASALWEI | 1.6 | 6 | 2.5 | 1.7 |  |  |  |  | 
FNMLSTVLGV |  |  |  |  |  |  |  |  | IC50 (HLA-A*02:02; [4]): 16 nM; IC50 (HLA-A*02:03; [4]): 11 nM; IC50 (HLA-A*02:06; [4]): 31 nM; IC50 (HLA-A*68:02; [4]): 860 nM
TLNEDLLEI | 1.4 | 2.2 | 56 | 1460 |  |  |  |  | 
RLWHYPCTV |  |  |  |  |  |  |  |  | IC50 (HLA-A*02:02; [3]): 165 nM; IC50 (HLA-A*02:03; [3]): 17 nM; IC50 (HLA-A*02:06; [3]): 131 nM; IC50 (HLA-A*68:02; [3]): 4310 nM
NMLSTVLGV |  |  |  |  |  |  |  |  | IC50 (HLA-A*02:03; [4]): 10 nM; IC50 (HLA-A*02:06; [4]): 71 nM
IIGHIGHHYI |  |  |  |  | 400 | 186 | 1350 | 222 | 
SLFIESSICL |  |  |  |  | 99 | 293 | 982 | 2160 | 
SMHFYGWSL |  |  |  |  |  |  | 383 | 11 | IC50 (HLA-A*02:01; [1]): 192 nM
KLRSSPPIPM |  |  |  |  | 58 | 134 | 2210 | 4280 | 
YLNTPGLPV |  |  |  |  |  |  |  |  | IC50 (HLA-A*02:02; [3]): 9.3 nM; IC50 (HLA-A*02:03; [3]): 12 nM; IC50 (HLA-A*02:06; [3]): 847 nM; IC50 (HLA-A*68:02; [3]): 196 nM
MLLRSAIGQV |  |  |  |  |  |  |  |  | IC50 (HLA-A*02:02; [4]): 1390 nM; IC50 (HLA-A*02:03; [4]): 7 nM; IC50 (HLA-A*02:06; [4]): 242 nM; IC50 (HLA-A*68:02; [4]): 1710 nM
RIEDMFLTSV |  |  |  |  | 548 | 71 | 168 | 1430 | 
FLTSLLILV | 2.2 | 12 | 3.3 | 260 |  |  |  |  | 
FLNRFTTTL | 0.66 | 1 | 58 | 286 |  |  |  |  | 
VLAWLYAAV | 0.097 | 0.31 | 8.8 | 37 |  |  |  |  | 
YTRPEIDVL |  |  |  |  | 115 | 74 | 154 | 528 | 
TLMNVITLV | 0.34 | 0.25 | 0.7 | 13 |  |  |  |  | 
